Experimental data reported in patent US20250186623A1, “EXPRESSION SYSTEM FOR THE TREATMENT OF CANCER” (FUNDACION PARA LA INVESTIGACION MEDICA APLICADA, priority 2022, published 2025).

Legend:
[1] = test system: B16 cells transduced with AAV8-ISREx4-LucmiR122T; assay: Radiation and IFN signaling on activation of the ISREx4 promoter (luciferase); type: cell-based, murine
Text: The ISREx4 promoter responds to interferon downstream signaling.

[2] = test system: human HEK293T cells stably expressing hSTINGmut; assay: Luciferase activity under synthetic promoters (pGL3-basic plasmids); type: cell-based; conditions: for luciferase activity / inducibility upon DMXAA: DMXAA 50 μg/mL, 48 h; for leakage in the absence of DMXAA: vehicle
Text: (§1) As described above, the specificity of the promoters used in the previous experiments was somewhat poor. […] In order to achieve this, synthetic promoters have been generated.
(§2) Seven different promoters were generated, namely short STATx4 (4 STAT motifs separated by 6 nucleotides according to SEQ ID NO: 26), IRSF3×4 (4 IRSF3 motifs separated by 20 nucleotides according to SEQ ID NO: 27), short IRSF3×4 (4 IRSF3 motifs separated by 6 nucleotides according to SEQ ID NO: 28), ISREx4 (4 ISRE motifs separated by 20 nucleotides according to SEQ ID NO: 12), short ISREx4 (4 ISRE motifs separated by 6 nucleotides according to SEQ ID NO: 13), NFκBx4 (4 NFκB motifs separated by 20 nucleotides according to SEQ ID NO: 29) and short NFκBx4 (4 NFκB motifs separated by 6 nucleotides according to SEQ ID NO: 30). […] In addition, a plasmid containing the luciferase sequence under the control of the murine IFN-β-promoter (mIFN-β) and a plasmid containing the luciferase sequence under the control of CXCL10-promoter were used as controls. Either MC38 cells or human HEK293T cells, both which stably expressed hSTINGmut as described above (example 1), were transfected with the indicated plasmids using Lipofectamine3000 according to the manufacturers protocol, whereas a negative control was mock-transfected (Basic).

[3] = test system: MC38 cell lines stably expressing hSTINGmut; assay: scIL-12 mRNA (qPCR) and secreted protein (ELISA) under STING-activity dependent promoters; type: cell-based, murine; conditions: for scIL-12 mRNA or protein expression upon DMXAA treatment: DMXAA 50 μg/mL
Text: The CXCL9-promoter and the CXCL10-promoter from experiment 2, and a full length IFN-β-promoter (IFN-β according to SEQ ID NO: 25) were used for the following experiment. To this end, lentiviral vectors encoding murine scIL-12 under the control of these three different promoters were constructed. […] After the indicated time points, cells were harvested. The cell lysate was used to measure scIL-12 mRNA expression by qPCR as described before (example 1, experiment 1), whereas the supernatant was used to measure secreted scIL-12 protein in NUNC MaxiSorp flat-bottom 96-well plates using an ELISA assay kit (OptEIA, Mouse IL-12 (p70), BD Biosciences, San Diego, CA USA), following manufacturer's instructions.

[4] = test system: MC38 cell lines stably expressing hSTINGmut; assay: Luciferase activity under chemokine promoters; type: cell-based, murine; conditions: for luciferase activity upon DMXAA administration: DMXAA 50 μg/mL, 3 or 6 h; for luciferase activity in the absence of DMXAA (leaky expression): vehicle
Text: Therefore, the objective of this experiment was to examine the specificity of these promoters in their response to DMXAA-induced STING activity.
The CXCL9-promoter (CXCL9 according to SEQ ID NO: 23) and the CXCL10-promoter (CXCL10 according to SEQ ID NO: 24) were used for the following experiment. To this end, lentiviral vectors encoding luciferase under the control of these two different promoters were constructed. […] In addition, the lentiviral vectors encoding the short IFN-β A promoter, the short IFN-β B promoter, the short IFN-β C promoter described in experiment 1 were used as a comparison. […] After another 3 or 6 h, cells were harvested and luciferase activity measured as described in experiment 1.

[5] = test system: MC38 cells stably expressing hSTINGmut; assay: Luciferase activity under synthetic promoters (pGL3-basic plasmids); type: cell-based, murine; conditions: DMXAA 50 μg/mL, 48 h
Text: as §1, §2

[6] = test system: MC38 cell lines stably expressing hSTINGmut; assay: Luciferase activity under modified IFN-β promoters; type: cell-based, murine
Text: Therefore, the objective of this experiment was to examine the specificity of different modified IFN-β promoters in their response to DMXAA-induced STING activity.
To this end, five different modifications of the IFN-β promoter (short IFN-β A according to SEQ ID NO: 18, short IFN-β B according to SEQ ID NO: 19, short IFN-β C according to SEQ ID NO: 20, short IFN-β D according to SEQ ID NO: 21, short IFN-β E according to SEQ ID NO: 22) were designed. Lentiviral vectors encoding luciferase under the control of these five different promoters were constructed. […] After another 3 h (FIG. 3A) or 3 and 6 h (FIGS. 3B, 3C, 3D) or 6 h (FIGS. 3E, 3F, 3G and 3H), cells were homogenized in 50 μL of Passive Lysis Buffer (Promega) and frozen in dry ice. After 3 cycles of thaw-vortex-freeze to ensure lysis, cells were spun at 12000 g for 2 min at 4° C. 20 μL were added to a luminometer 96-well plate and luciferase activity was determined using the respective substrates D-Luciferin and Coelenterazine.

[7] = 1,000 IU interferon alone (0 Gy)
[8] = 1,000 IU interferon together with radiation (8 Gy)

IFN-α
luciferase activity [1, 7]: significantly increased luciferase activity
luciferase activity [1, 8]: induced luciferase activity dramatically

B1: IFN-γ: exogenously added interferon, 1,000 IU (protein, UniProt P01579 24-161, looked up)
Interferon gamma: QDPYVKEAENLKKYFNAGHSDVADNGTLFLGILKNWKEESDRKIMQSQIVSFYFKLFKNFKDDQSIQKSVETIKEDMNVKFFNSNKKKRDDFEKLTNYSVTDLNVQRKAIHELIQVMAELSPAAKTGKRKRSQMLFRG
luciferase activity [1, 7]: significantly increased luciferase activity
luciferase activity [1, 8]: induced luciferase activity dramatically

B2: ISREx4-promoter: 4 ISRE motifs separated by 20 nucleotides according to SEQ ID NO: 12 (nucleic acid)
DNA: ATCTCTGCGATGAACCTCACAGTTTCGCTTTCTATCTCTGCGATGAACCTCACAGTTTCGCTTTCTATCTCTGCGATGAACCTCACAGTTTCGCTTTCTATCTCTGCGATGAACCTCACAGTTTCGCTTTCTGTGCCTCTTATGATCTGGATCTCGAGCCATGGTCGAGGCCTGTAGGCGTGTACGGTGGGAGGCTTATATAAGCAGAGCTC
modifications: misc_feature 1..212 ISREx4
luciferase activity / inducibility upon DMXAA [2]: highest inducibility
leakage in the absence of DMXAA [2]: undetectable leakage

B3: CXCL10-promoter: CXCL10-promoter according to SEQ ID NO: 24 (nucleic acid, listed as Mus musculus)
DNA: TCTAACTGTTCACTAAGTTGTATAGACTTTGGATCTGGCTAAATTTGGCGTGTGATTTTTTTTTAAAGTTTATTCCAAGTATTTTATAATAAAGCATATGAAGTAAAAAGCAAAAATAAACAGTGTAAACACAACAAATGTAAAAACCATGGTTAGAACCTGACTTAGATATCAGTTCTGTGTTTTATTTATGAGAGAAGGAAGATGAGAATTAAAGCCATTTCCAGACTTATTCTGCAAGGCACTGCATCTGATTTCTCAAACAGCTCACGCTTTGGAAAGTGAAACTTACCTCACTCGTTAAAAATTAAAAGGAGCACAAGAGGGGAGAGGGAAATTCCAAGTTCATGGGTCACAATAAACACAAGCAATGCCCTCGGTTTACAGGGGACTTCCCTCGGGTTGCGGAGCCTTGCTGAGTCATCTCCAAAGTCAGCCAATCAGGACTCAGGGAGGGAAACTCTTTGCAGATAAATACTCCTCAGCAGCCGGCACTCGAGAAGCGCTTCATCCACCGCTGAGAGACATCCCGAGCCAACCTTCCGGAAGCCTCCCCATCAGCACC
modifications: misc_feature 1..565 CXCL10-promoter
scIL-12 mRNA or protein expression upon DMXAA treatment [3]: highly upregulated
scIL-12 production in the absence of DMXAA (leakage) ([3]; vehicle): significant leakage
luciferase activity / inducibility upon DMXAA [2]: highest inducibility
leakage in the absence of DMXAA [2]: considerable leakage
luciferase activity upon DMXAA administration [4]: significantly higher luciferase activities
luciferase activity in the absence of DMXAA (leaky expression) [4]: significant luciferase activity

B4: short STAT-promoter: 4 STAT motifs separated by 6 nucleotides according to SEQ ID NO: 26 (nucleic acid)
DNA: ATCTCTGCGATGAACCTCACTTCGCTAGAAATCTCTGCGATGAACCTCACTTCGCTAGAAATATCTCTGCGATGAACCTCACTTCGCTAGAAATCTCTGCGATGAACCTCACTTCGCTAGAAGTGCCTCTTATGATCTGGATCTCGAGCCATGGTCGAGGCCTGTAGGCGTGTACGGTGGGAGGCTTATATAAGCAGAGCTC
modifications: misc_feature 1..202 STATx4
luciferase activity / inducibility upon DMXAA [5]: poor inducibility

B5: short IFN-β A promoter: modification of the IFN-β promoter according to SEQ ID NO: 18 (nucleic acid)
DNA: CAGGAGCTTGAATAAAATGAATATTAGAAGCTGTTAGAATAAGAGAAAATGACAGAGGAAAACTGAAAGGGAGAACTGAAAGTGGGAAATTCCTCTGAGGCAGAAAGGACCATCCCTTATAAATAGCACAGGCCATGAAGGAAGATCATTCTCACTGCAGCCTTTGACAGCCTTTGCCTCATCTTGCAGGTAGCAGCCGACACCAGCCTGGCTTCCATC
modifications: misc_feature 1..219 short IFNb A-promoter
luciferase activity upon DMXAA treatment ([6]; DMXAA 50 μg/mL, 3 h): highest luciferase activity
luciferase activity in the absence of DMXAA (leaky expression) ([6]; vehicle): significant luciferase activity

B6: IFN-β-promoter: full length IFN-β-promoter according to SEQ ID NO: 25 (nucleic acid, listed as Mus musculus)
DNA: CCAGGATGTGGGGTTCTCTCCCAAAGGGAGCTATGGCCCATTGATGTGCCATTTCTCTTATAGTACACTATTGTAAGCCCCCTGGGAGCTCACAGAGACCCTCTCCCACCATCCCACTATTTCAAAGGGCAGCAGCTGTGCCATCCTTTCAGGATGAGCAGCTACTCTGCCTGGCTTTTCAGTGGACACTTTGGCTGTTTGAGAGTTCTTTTATCTTCAGGGCTGTCTCCTTTCTGTTCTTCTCTCCTGGATATTTCTCTTCCTTTGCTCCAGCAATTGGTGAAACTGTACAAGATTTTATAAATCCTTAGTTTGTATATATTTTAACCCAGTACATAGCATATAAAATAGCCAGGAGCTTGAATAAAATGAATATTAGAAGCTGTTAGAATAAGAGAAAATGACAGAGGAAAACTGAAAGGGAGAACTGAAAGTGGGAAATTCCTCTGAGGCAGAAAGGACCATCCCTTATAAATAGCACAGGCCATGAAGGAAGATCATTCTCACTGCAGCCTTTGACAGCCTTTGCCTCATCTTGCAGGTAGCAGCCGACACCAGCCTGGCTTCCATC
modifications: misc_feature 1..571 IFNb1-promoter
scIL-12 mRNA or protein expression upon DMXAA treatment [3]: poor

B7: CXCL9-promoter: CXCL9-promoter according to SEQ ID NO: 23 (nucleic acid, listed as Mus musculus)
DNA: GACACAGACATCTCGTGAAACATCTGGAAAAGGTAGCAGGGAACGGGACAGCAGTAGCTTATGCAACTAATCTAGCAATTACAATGATAGGAAACTGTAGCCACGGTGAGACGAAATGGATTTACCCTCAACAAATTAAGAAGCTTTGACTTGTGAGGAAAGGCAGTTTGAGTCGCCATATAGTGTCATGTCCCACGTGGGAAGTACATCTCCAACCTTCATTGTACAACATTAATATAGTCATTGTATAATCTATTCCACATCCAGGTAGCAACTTTGCCTGGGGGTGGTTTCACATCCCTTACTATAAACTCCCCGTTTATGTGAAATGGAAGTAGAACATGCAGAAATTCCCTGGGATCTGAGAGTAGGGTTTTCCCCAGGACGATCAATTTGTGGTTAGTTTAGTTCTTCTAGGTCAGCTGAGGAGACCAGCCAATCAGAGACGGGAAGGAAAAGGGATTTCCTAAATAAATATGATCCCCAAGAACATGCTCTCTAAAGACATTCTCGGACTTCACTCCAACACAGTGACTCAATAGAACTCAGCTCTGCC
modifications: misc_feature 1..556 CXCL9-promoter
scIL-12 mRNA or protein expression upon DMXAA treatment [3]: poor
luciferase activity upon DMXAA administration [4]: significantly higher luciferase activities
luciferase activity in the absence of DMXAA (leaky expression) [4]: significant luciferase activity
